The supplement of paper PMC9170038

System: MS2 coat protein
Assay: apparent KD of MS2 coat protein; higher = weaker reporter binding
Details: Eterna round: R107
How it was run: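 Titration buffer: 100 mM Tris-HCl pH 7.5, 80 mM KCl, 4 mM MgCl2, without or with constant ligand. Designed RNA switches transcribed on-chip from Illumina sequencing clusters received SNAP-549-labelled MS2 coat protein in twofold steps from 0.7 or 1.5 nM to 3 µM. Apparent KD is the median per design of fits to normalised cluster binding curves.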

[1] = input ligand: theophylline 20 uM
[2] = input ligand: theophylline 2 mM
[3] = input ligand: tryptophan 2.4 mM

Sequence	apparent KD of MS2 coat protein (input ligand: arginine 13.2 mM)	apparent KD of MS2 coat protein (input ligand: none)	apparent KD of MS2 coat protein [1]	apparent KD of MS2 coat protein [2]	apparent KD of MS2 coat protein [3]
UAUAUAGAUGGACGUCAUAUAGAUGCAGAAGGAGCGUAGGAAACUACAGGUAGGUCGCUGAGGUACAUGAGGAUCACCCAUGUAG [SSArg A #19 Slice of Pi]	34.3 nM	26.5 nM	38 nM	37.9 nM	20.9 nM
ACGGUUGGUUCGUUACCUCAUAUCUCAGAAGGAGCGGGCAGUAGUCCAGGUAGGUCGCUGGGACAUGAGGAUCACCCAUGUCUUA [Aataer]	22.4 nM	103 nM	139 nM	211 nM	166 nM
GUGACUUAAAGGCGCCAUUUGUGAUAGGAAGGAGCGGCGAAAUAGCCAGGUAGGUCGCCUAUACAUGAGGAUCACCCAUGUCACC [XARG-A 26]	48.7 nM	98.5 nM	84.4 nM	123 nM	73.7 nM
AAUUGGGUUGGUGAGGUGGUUGGAGGCGAUACCAGCGUGGAAACACGCCCUUGGCAGCGCCAAAACAUGAGGAUCACCCAUGUUA [Plzen]	42 nM	475 nM	365 nM	484 nM	157 nM
GCACAAGAUGGAAGGAGCGCUGGUAACGGUCACAUGAGGAUCACCCAUGUGCUCCUUGCCGAGCAGGUAGGUCGCCAUCUUGUGC [SSAB NP+V+V2 #6 +-Same Structure]	34.1 nM	44.4 nM	46.1 nM	45.3 nM	35.3 nM
CCUGCUACGGGAAACCGUAGCAGGAAUGAUACCAGUAGGAAAGACUACCCUUGGCAGCAUGGGUAACAUGAGGAUCACCCAUGUU [SSThA NP+V+V2 #6 Same Structure]	70.9 nM	132 nM	124 nM	87.9 nM	66 nM
GGAAAAGAAAGAAAAGAAAUCCCUCCCUCCCGAGGACCGGUACGGCCGCCACUCGCCCUCCCUCCCACAUGAGGAUCACCCAUGU [Exclusion - Trytophan A]	23.7 nM	–	31.3 nM	27.8 nM	–
CUUGGCUGUGCGGCCGCCACUGGCUCAUCCUGCAUUACAUGAGGAUCACCCAUGUUGCGGCCUCCCAGGACCGGGCAUAGCCUGA [Usesties]	127 nM	–	702 nM	684 nM	–
GGACUAACCAGAAGGAGCGACGCAAAGCAGAAACUGCAUCCUCCGCACGAGGAUCACCCGUGUCAGGUAGGUCGCUGGUUAGUCG [ArgBX 28]	18.8 nM	17.7 nM	24.7 nM	26.3 nM	21.7 nM
GAUACGCAGUCGGCCGCCACUUGCUAAGGUGACAAACCAAAACAUGAGGAUCACCCAUGUCUGAUAAGGACCGGGACCACCAUGG [theeternabot_sameState_MS2_Trp_B_14]	69.7 nM	–	124 nM	129 nM	–
AAUCUGUCGGGUGAUACCAGCCUCGGCGCAUCUCGCACCGAACAUGAGGAUCACCCAUGUGGCCCUUGGCAGCACAUGACAAAUC [Ermateus]	113 nM	–	767 nM	–	654 nM
UACCGAGAGGGAAGGAGCGCGAUAACAUAACAUGAGGAUCACCCAUGUAAGAAAUUAAUCAUGCAGGUAGGUCGCCCAAGCGGAU [Same State Arginine B GF 2]	16.7 nM	15.4 nM	21.5 nM	15.8 nM	14.7 nM
UUCAGCUAGUCGGCCGCCACUACAUGAGGAUCACCCAUGUCGGUCCUCACUGCUUCGGCAGUGUGUAGGACCGGGACUAGCUGAG	62 nM	–	93.6 nM	91.3 nM	–
ACAUGAGGAUCACCCAUGUGCAUCACCCGACGAGGACCGGUACGGCCGCCACUCGGGUAUAUAUUUACAUCGGGUGAUUUUACGU [#24 Tryptophan A Same State]	29.1 nM	–	55.9 nM	51.8 nM	–
AGUACUCGAACGGAUACCAGCCGGACAUGAGGAUCACCCAUGUCCUACCAAUGUUCGGUUGGCCCUUGGCAGCCGUUCGUGUACA [Omei Theo B SS A v5]	99.5 nM	–	404 nM	–	599 nM
GGCUGUCAUAGGAGGUCAAAUAUACUCGAAGGAGCGUCAUAGUAGGCAGGUAGGUCGCGAGACAUGAGGAUCACCCAUGUAGAGA [xkxmullin]	37.7 nM	69.1 nM	122 nM	52.9 nM	30.6 nM
ACUCUGUCGGGUGAUACCAGCCUCGGCACAUCUCGCGCCGAACAUGAGGAUCACCCAUGUGGCCCUUGGCAGCACAUGACAAAUC [Rimalearve]	64.1 nM	–	618 nM	–	512 nM
